Laboratory results: paper PMC10159003
Several values for one entry are separate records, joined by “and”; a condition that tells them apart may be missing. Equal entries are not always repeated. Where two headings read alike, the source gives them in different places.

Columns and labels:
[1] = molecular target: full-length RtcR (S. Typhimurium); experiment: SEC
[2] = molecular target: full-length RtcR (S. Typhimurium); experiment: SEC; remark: listed apart in the source

full-length RtcR (natural protein)
stoichiometry N [1]: 2 and 6 | stoichiometry N [2]: 2 and 6
